Data: the supplement of paper PMC5998384

Legend:
HeLa Kyoto [1] = assay: melting temperature (median over replicates), in situ; higher = more thermally stable
HeLa Kyoto [2] = assay: solubility change mitosis vs G1/S (difference of NP-40 vs SDS log2 ratios) (log2 ratio difference); higher = more soluble in mitosis
HeLa Kyoto [3] = assay: solubility in G1/S (NP-40 vs SDS abundance) (log2 ratio); higher = more soluble; details: cell cycle stage: G1/S
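Wherever melting temperature (median over replicates), in situ is given: HeLa Kyoto cells synchronized by double thymidine or nocodazole block, proteins quantified by TMT10plex mass spectrometry, three independent biological replicates.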
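Wherever solubility change mitosis vs G1/S (difference of NP-40 vs SDS log2 ratios) is given: synchronized HeLa Kyoto cells (double thymidine block for G1/S, nocodazole release for mitosis), protein amounts in NP-40 versus SDS lysates quantified by mass spectrometry, three biological replicates.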
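Wherever solubility in G1/S (NP-40 vs SDS abundance) is given: HeLa Kyoto cells arrested at G1/S by double thymidine block, proteins quantified by TMT10plex mass spectrometry in mild NP-40 versus SDS extracts, three biological replicates.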

Sequence | melting temperature (HeLa Kyoto [1]; cell cycle stage: G1/S) [°C] | melting temperature (HeLa Kyoto [1]; cell cycle stage: mitosis) [°C] | solubility change mitosis (log2) (HeLa Kyoto [2]) | solubility in G1/S (log2) (HeLa Kyoto [3])
MAAHLSYGRVNLNVLREAVRRELREFLDKCAGSKAIVWDEYLTGPFGLIAQYSLLKEHEVEKMFTLKGNRLPAADVKNIIFFVRPRLELMDIIAENVLSEDRRGPTRDFHILFVPRRSLLCEQRLKDLGVLGSFIHREEYSLDLIPFDGDLLSMESEGAFKECYLEGDQTSLYHAAKGLMTLQALYGTIPQIFGKGECARQVANMMIRMKREFTGSQNSIFPVFDNLLLLDRNVDLLTPLATQLTYEGLIDEIYGIQNSYVKLPPEKFAPKKQGDGGKDLPTEAKKLQLNSAEELYAEIRDKNFNAVGSVLSKKAKIISAAFEERHNAKTVGEIKQFVSQLPHMQAARGSLANHTSIAELIKDVTTSEDFFDKLTVEQEFMSGIDTDKVNNYIEDCIAQKHSLIKVLRLVCLQSVCNSGLKQKVLDYYKREILQTYGYEHILTLHNLEKAGLLKPQTGGRNNYPTIRKTLRLWMDDVNEQNPTDISYVYSGYAPLSVRLAQLLSRPGWRSIEEVLRILPGPHFEERQPLPTGLQKKRQPGENRVTLIFFLGGVTFAEIAALRFLSQLEDGGTEYVIATTKLMNGTSWIEALMEKPF [VPS33A] | 49.4 | 49.9 | -0.165 | -0.0025
MAAQLLEEKLTCAICLGLYQDPVTLPCGHNFCGACIRDWWDRCGKACPECREPFPDGAELRRNVALSGVLEVVRAGPARDPGPDPGPGPDPAARCPRHGRPLELFCRTEGRCVCSVCTVRECRLHERALLDAERLKREAQLRASLEVTQQQATQAEGQLLELRKQSSQIQNSACILASWVSGKFSSLLQALEIQHTTALRSIEVAKTQALAQARDEEQRLRVHLEAVARHGCRIRELLEQVDEQTFLQESQLLQPPGPLGPLTPLQWDEDQQLGDLKQLLSRLCGLLLEEGSHPGAPAKPVDLAPVEAPGPLAPVPSTVCPLRRKLWQNYRNLTFDPVSANRHFYLSRQDQQVKHCRQSRGPGGPGSFELWQVQCAQSFQAGHHYWEVRASDHSVTLGVSYPQLPRCRLGPHTDNIGRGPCSWGLCVQEDSLQAWHNGEAQRLPGVSGRLLGMDLDLASGCLTFYSLEPQTQPLYTFHALFNQPLTPVFWLLEGRTLTLCHQPGAVFPLGPQEEVLS [TRIM65] | 49.2 | 49.3 | -0.0816 | -0.0459
MAARGRRAEPQGREAPGPAGGGGGGSRWAESGSGTSPESGDEEVSGAGSSPVSGGVNLFANDGSFLELFKRKMEEEQRQRQEEPPPGPQRPDQSAAAAGPGDPKRKGGPGSTLSFVGKRRGGNKLALKTGIVAKKQKTEDEVLTSKGDAWAKYMAEVKKYKAHQCGDDDKTRPLVK [C19ORF43] | 54.8 | 51.3 | 0.898 | 0.0485
MAASTASHRPIKGILKNKTSTTSSMVASAEQPRGNVDEELSKKSQKWDEMNILATYHPADKDYGLMKIDEPSTPYHSMMGDDEDACSDTEATEAMAPDILARKLAAAEGLEPKYRIQEQESSGEEDSDLSPEEREKKRQFEMKRKLHYNEGLNIKLARQLISKDLHDDDEDEEMLETADGESMNTEESNQGSTPSDQQQNKLRSS [PPP1R2] | 59.3 | 52.4 | 0.383 | 0.172
MACLSPSQLQKFQQDGFLVLEGFLSAEECVAMQQRIGEIVAEMDVPLHCRTEFSTQEEEQLRAQGSTDYFLSSGDKIRFFFEKGVFDEKGNFLVPPEKSINKIGHALHAHDPVFKSITHSFKVQTLARSLGLQMPVVVQSMYIFKQPHFGGEVSPHQDASFLYTEPLGRVLGVWIAVEDATLENGCLWFIPGSHTSGVSRRMVRAPVGSAPGTSFLGSEPARDNSLFVPTPVQRGALVLIHGEVVHKSKQNLSDRSRQAYTFHLMEASGTTWSPENWLQPTAELPFPQLYT [PHYHD1] | 50.2 | 51.2 | -0.137 | 0.198
MAELGLNEHHQNEVINYMRFARSKRGLRLKTVDSCFQDLKESRLVEDTFTIDEVSEVLNGLQAVVHSEVESELINTAYTNVLLLRQLFAQAEKWYLKLQTDISELENRELLEQVAEFEKAEITSSNKKPILDVTKPKLAPLNEGGTAELLNKEILRLQEENEKLKSRLKTIEIQATNALDEKSKLEKALQDLQLDQGNQKDFIKAQDLSNLENTVAALKSEFQKTLNDKTENQKSLEENLATAKHDLLRVQEQLHMAEKELEKKFQQTAAYRNMKEILTKKNDQIKDLRKRLAQYEPED [LZTFL1] | 53.2 | 52.7 | 0.0593 | 0.713
